Test results reported in patent publication US20190225650A1, “PEPTIDOMIMETIC MACROCYCLES AND USE THEREOF IN REGULATING HIF1ALPHA” (AILERON THERAPEUTICS, INC., priority 2013, published 2019).
Bridge positions count the residues as written; N and C are the ends. Square brackets hold non-standard residues; d marks the D form. S5 = C=CCCC[C@](C)(N)C(=O)O; Nle = CCCC[C@H](N)C(=O)O

B1: SP-26 (peptide)
peptide: Ac-FIDEEVLA[S5]LVI[S5]AALDRI-NH2
modifications: staple 9-13
SMILES: CC[C@H](C)[C@H](NC(=O)[C@H](CCCNC(=N)N)NC(=O)[C@H](CC(=O)O)NC(=O)[C@H](CC(C)C)NC(=O)[C@H](C)NC(=O)[C@H](C)NC(=O)[C@]1(C)CCCC=CCCC[C@](C)(NC(=O)[C@H](C)NC(=O)[C@H](CC(C)C)NC(=O)[C@@H](NC(=O)[C@H](CCC(=O)O)NC(=O)[C@H](CCC(=O)O)NC(=O)[C@H](CC(=O)O)NC(=O)[C@@H](NC(=O)[C@H](Cc2ccccc2)NC(C)=O)[C@@H](C)CC)C(C)C)C(=O)N[C@@H](CC(C)C)C(=O)N[C@@H](C(C)C)C(=O)N[C@@H]([C@@H](C)CC)C(=O)N1)C(N)=O
B2: SP-39 (peptide)
peptide: Ac-FIDEEVL[Nle][S5]LVI[S5][Nle]ELDRI-NH2
modifications: staple 9-13
SMILES: CCCC[C@H](NC(=O)[C@H](CC(C)C)NC(=O)[C@@H](NC(=O)[C@H](CCC(=O)O)NC(=O)[C@H](CCC(=O)O)NC(=O)[C@H](CC(=O)O)NC(=O)[C@@H](NC(=O)[C@H](Cc1ccccc1)NC(C)=O)[C@@H](C)CC)C(C)C)C(=O)N[C@@]1(C)CCCC=CCCC[C@@](C)(C(=O)N[C@@H](CCCC)C(=O)N[C@@H](CCC(=O)O)C(=O)N[C@@H](CC(C)C)C(=O)N[C@@H](CC(=O)O)C(=O)N[C@@H](CCCNC(=N)N)C(=O)N[C@H](C(N)=O)[C@@H](C)CC)NC(=O)[C@H]([C@@H](C)CC)NC(=O)[C@H](C(C)C)NC(=O)[C@H](CC(C)C)NC1=O
B3: SP-31 (peptide)
peptide: Ac-FEDEEVL[Nle][S5]LVI[S5][Nle]ALDRI-NH2
modifications: staple 9-13
SMILES: CCCC[C@H](NC(=O)[C@H](CC(C)C)NC(=O)[C@@H](NC(=O)[C@H](CCC(=O)O)NC(=O)[C@H](CCC(=O)O)NC(=O)[C@H](CC(=O)O)NC(=O)[C@H](CCC(=O)O)NC(=O)[C@H](Cc1ccccc1)NC(C)=O)C(C)C)C(=O)N[C@@]1(C)CCCC=CCCC[C@@](C)(C(=O)N[C@@H](CCCC)C(=O)N[C@@H](C)C(=O)N[C@@H](CC(C)C)C(=O)N[C@@H](CC(=O)O)C(=O)N[C@@H](CCCNC(=N)N)C(=O)N[C@H](C(N)=O)[C@@H](C)CC)NC(=O)[C@H]([C@@H](C)CC)NC(=O)[C@H](C(C)C)NC(=O)[C@H](CC(C)C)NC1=O
B4: SP-32 (peptide)
peptide: Ac-FIDEEDL[Nle][S5]LVI[S5][Nle]ALDRI-NH2
modifications: staple 9-13
SMILES: CCCC[C@H](NC(=O)[C@H](CC(C)C)NC(=O)[C@H](CC(=O)O)NC(=O)[C@H](CCC(=O)O)NC(=O)[C@H](CCC(=O)O)NC(=O)[C@H](CC(=O)O)NC(=O)[C@@H](NC(=O)[C@H](Cc1ccccc1)NC(C)=O)[C@@H](C)CC)C(=O)N[C@@]1(C)CCCC=CCCC[C@@](C)(C(=O)N[C@@H](CCCC)C(=O)N[C@@H](C)C(=O)N[C@@H](CC(C)C)C(=O)N[C@@H](CC(=O)O)C(=O)N[C@@H](CCCNC(=N)N)C(=O)N[C@H](C(N)=O)[C@@H](C)CC)NC(=O)[C@H]([C@@H](C)CC)NC(=O)[C@H](C(C)C)NC(=O)[C@H](CC(C)C)NC1=O
B5: SP-33 (peptide)
peptide: Ac-FIDEEVE[Nle][S5]LVI[S5][Nle]ALDRI-NH2
modifications: staple 9-13
SMILES: CCCC[C@H](NC(=O)[C@H](CCC(=O)O)NC(=O)[C@@H](NC(=O)[C@H](CCC(=O)O)NC(=O)[C@H](CCC(=O)O)NC(=O)[C@H](CC(=O)O)NC(=O)[C@@H](NC(=O)[C@H](Cc1ccccc1)NC(C)=O)[C@@H](C)CC)C(C)C)C(=O)N[C@@]1(C)CCCC=CCCC[C@@](C)(C(=O)N[C@@H](CCCC)C(=O)N[C@@H](C)C(=O)N[C@@H](CC(C)C)C(=O)N[C@@H](CC(=O)O)C(=O)N[C@@H](CCCNC(=N)N)C(=O)N[C@H](C(N)=O)[C@@H](C)CC)NC(=O)[C@H]([C@@H](C)CC)NC(=O)[C@H](C(C)C)NC(=O)[C@H](CC(C)C)NC1=O
B6: SP-38 (peptide)
peptide: Ac-FIDEEVL[Nle][S5]LVI[S5]EALDRI-NH2
modifications: staple 9-13
SMILES: CCCC[C@H](NC(=O)[C@H](CC(C)C)NC(=O)[C@@H](NC(=O)[C@H](CCC(=O)O)NC(=O)[C@H](CCC(=O)O)NC(=O)[C@H](CC(=O)O)NC(=O)[C@@H](NC(=O)[C@H](Cc1ccccc1)NC(C)=O)[C@@H](C)CC)C(C)C)C(=O)N[C@@]1(C)CCCC=CCCC[C@@](C)(C(=O)N[C@@H](CCC(=O)O)C(=O)N[C@@H](C)C(=O)N[C@@H](CC(C)C)C(=O)N[C@@H](CC(=O)O)C(=O)N[C@@H](CCCNC(=N)N)C(=O)N[C@H](C(N)=O)[C@@H](C)CC)NC(=O)[C@H]([C@@H](C)CC)NC(=O)[C@H](C(C)C)NC(=O)[C@H](CC(C)C)NC1=O
B7: SP-34 (peptide)
peptide: Ac-FIDEEVLD[S5]LVI[S5][Nle]ALDRI-NH2
modifications: staple 9-13
SMILES: CCCC[C@H](NC(=O)[C@]1(C)CCCC=CCCC[C@](C)(NC(=O)[C@H](CC(=O)O)NC(=O)[C@H](CC(C)C)NC(=O)[C@@H](NC(=O)[C@H](CCC(=O)O)NC(=O)[C@H](CCC(=O)O)NC(=O)[C@H](CC(=O)O)NC(=O)[C@@H](NC(=O)[C@H](Cc2ccccc2)NC(C)=O)[C@@H](C)CC)C(C)C)C(=O)N[C@@H](CC(C)C)C(=O)N[C@@H](C(C)C)C(=O)N[C@@H]([C@@H](C)CC)C(=O)N1)C(=O)N[C@@H](C)C(=O)N[C@@H](CC(C)C)C(=O)N[C@@H](CC(=O)O)C(=O)N[C@@H](CCCNC(=N)N)C(=O)N[C@H](C(N)=O)[C@@H](C)CC
B8: SP-35 (peptide)
peptide: Ac-FIDEEVL[Nle][S5]DVI[S5][Nle]ALDRI-NH2
modifications: staple 9-13
SMILES: CCCC[C@H](NC(=O)[C@H](CC(C)C)NC(=O)[C@@H](NC(=O)[C@H](CCC(=O)O)NC(=O)[C@H](CCC(=O)O)NC(=O)[C@H](CC(=O)O)NC(=O)[C@@H](NC(=O)[C@H](Cc1ccccc1)NC(C)=O)[C@@H](C)CC)C(C)C)C(=O)N[C@@]1(C)CCCC=CCCC[C@@](C)(C(=O)N[C@@H](CCCC)C(=O)N[C@@H](C)C(=O)N[C@@H](CC(C)C)C(=O)N[C@@H](CC(=O)O)C(=O)N[C@@H](CCCNC(=N)N)C(=O)N[C@H](C(N)=O)[C@@H](C)CC)NC(=O)[C@H]([C@@H](C)CC)NC(=O)[C@H](C(C)C)NC(=O)[C@H](CC(=O)O)NC1=O
B9: SP-37 (peptide)
peptide: Ac-FIDEEVL[Nle][S5]LVE[S5][Nle]ALDRI-NH2
modifications: staple 9-13
SMILES: CCCC[C@H](NC(=O)[C@H](CC(C)C)NC(=O)[C@@H](NC(=O)[C@H](CCC(=O)O)NC(=O)[C@H](CCC(=O)O)NC(=O)[C@H](CC(=O)O)NC(=O)[C@@H](NC(=O)[C@H](Cc1ccccc1)NC(C)=O)[C@@H](C)CC)C(C)C)C(=O)N[C@@]1(C)CCCC=CCCC[C@@](C)(C(=O)N[C@@H](CCCC)C(=O)N[C@@H](C)C(=O)N[C@@H](CC(C)C)C(=O)N[C@@H](CC(=O)O)C(=O)N[C@@H](CCCNC(=N)N)C(=O)N[C@H](C(N)=O)[C@@H](C)CC)NC(=O)[C@H](CCC(=O)O)NC(=O)[C@H](C(C)C)NC(=O)[C@H](CC(C)C)NC1=O
B10: SP-36 (peptide)
peptide: Ac-FIDEEVL[Nle][S5]LEI[S5][Nle]ALDRI-NH2
modifications: staple 9-13
SMILES: CCCC[C@H](NC(=O)[C@H](CC(C)C)NC(=O)[C@@H](NC(=O)[C@H](CCC(=O)O)NC(=O)[C@H](CCC(=O)O)NC(=O)[C@H](CC(=O)O)NC(=O)[C@@H](NC(=O)[C@H](Cc1ccccc1)NC(C)=O)[C@@H](C)CC)C(C)C)C(=O)N[C@@]1(C)CCCC=CCCC[C@@](C)(C(=O)N[C@@H](CCCC)C(=O)N[C@@H](C)C(=O)N[C@@H](CC(C)C)C(=O)N[C@@H](CC(=O)O)C(=O)N[C@@H](CCCNC(=N)N)C(=O)N[C@H](C(N)=O)[C@@H](C)CC)NC(=O)[C@H]([C@@H](C)CC)NC(=O)[C@H](CCC(=O)O)NC(=O)[C@H](CC(C)C)NC1=O
B11: SP-30 (peptide)
peptide: Ac-EIDEEVL[Nle][S5]LVI[S5][Nle]ALDRI-NH2
modifications: staple 9-13
SMILES: CCCC[C@H](NC(=O)[C@H](CC(C)C)NC(=O)[C@@H](NC(=O)[C@H](CCC(=O)O)NC(=O)[C@H](CCC(=O)O)NC(=O)[C@H](CC(=O)O)NC(=O)[C@@H](NC(=O)[C@H](CCC(=O)O)NC(C)=O)[C@@H](C)CC)C(C)C)C(=O)N[C@@]1(C)CCCC=CCCC[C@@](C)(C(=O)N[C@@H](CCCC)C(=O)N[C@@H](C)C(=O)N[C@@H](CC(C)C)C(=O)N[C@@H](CC(=O)O)C(=O)N[C@@H](CCCNC(=N)N)C(=O)N[C@H](C(N)=O)[C@@H](C)CC)NC(=O)[C@H]([C@@H](C)CC)NC(=O)[C@H](C(C)C)NC(=O)[C@H](CC(C)C)NC1=O
B12: SP-198 (peptide)
peptide: Ac-FIAEXVL[Nle]SLVXA[Nle]AL-NH2
modifications: staple 5-12; not fully specified (residues 5, 12); printed as Ac-FIAE-$r8-VL-Nle-SLV-$-A-Nle-AL-NH2

These binders were tested against T1, His6-tagged p300 (AA 323-423) (UniProt Q09472 323-423) (assay: TR-FRET HIF1a/p300 displacement; grade = IC50 >700 nM).
T1 construct: range 323-423; also called p300-CH; not shown: His6 tag
T1 sequence (Q09472 323-423 limits assumed): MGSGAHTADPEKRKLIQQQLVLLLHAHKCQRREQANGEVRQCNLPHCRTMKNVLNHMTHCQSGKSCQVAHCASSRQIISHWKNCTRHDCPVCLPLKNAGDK
Protocol: The ability of peptides to displace HIF1α c-terminal trans-activation domain from p300-CH was measured by a TR FRET assay. […] The complex was diluted to 300 nM final in complete assay media and competitor peptides were added. The complete assay media contained 150 mM NaCl (Sigma +S5150 or equivalent), 20 mM HEPES pH 7.4 (Boston Bioproducts, Ashland, Mass.; #BB-2076), 7.5 mM CHAPS (Thermo #28300 or equivalent), and 1 mM DTT. Protein and peptide were incubated at room temperature for 1 hour before the addition of anti-Flag-K and anti-6×HIS-D2 (CisBio, Bedford Mass.) HTRF reconstitution buffer (50 mM Phosphate pH 7, 0.8 Potassium Flouride, BSA 0.2%)¹ to a final concentration of 0.5 μM and 4 nM respectively. The reaction continued for an additional two hours at room temperature. The reaction was read on a TECAN F500 plate reader with settings recommended by CisBio. The ratio of donor to acceptor fluorescence was calculated. The resulting data was analyzed with Graphpad Prism 5.0. IC50 values were calculated for both proteins using the One Site Fit-LogIC50 equation and presented in the column “IC₅₀ (nM) (HIF1α_p300 Displacement+CHAPS)” of Table 6. ¹ Cisbio USA, Bedford, Mass.; 61HISDLB (lot 007A), 61FG2KLB (024A), HTRF Buffer (62RB3RDF)

IC50, > 700 nM:
B1, B2, B3, B4, B5, B6, B7, B8, B9, B10, B11, B12
